Where a chain is given by its changes, count along the chain named. Numbers in names are those of the source.

Consider four molecules from US20260327324 (published 2026).

One assay has as its target T1, CD3e (UniProt P07766).
T1 chain: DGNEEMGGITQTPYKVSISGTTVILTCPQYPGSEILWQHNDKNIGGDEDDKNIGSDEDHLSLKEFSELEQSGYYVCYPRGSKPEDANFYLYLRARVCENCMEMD
Put plainly: SPR. In general terms: Surface plasmon resonance follows binding to a sensor surface in real time, without labels.

The target in the next assay is PD-L1 (UniProt Q9NZQ7). Put plainly: SPR.
Sequence of PD-L1 (Q9NZQ7 19-238): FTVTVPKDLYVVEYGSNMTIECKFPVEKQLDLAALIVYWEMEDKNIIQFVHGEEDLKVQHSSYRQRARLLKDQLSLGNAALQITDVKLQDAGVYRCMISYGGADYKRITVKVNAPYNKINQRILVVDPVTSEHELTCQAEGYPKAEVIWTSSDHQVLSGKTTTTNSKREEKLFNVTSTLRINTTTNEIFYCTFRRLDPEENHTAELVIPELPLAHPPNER

B1: PRO3718 (28-21-D09-sc04 A67G_S68G) (antibody)
chain: DIQMTQSPSSLSASVGDRVTITCQSSQSVFSNNYLAWFQQKPGQSPKRLIYSGGTLASGVPSRFSGSGSGTDFTLTISSLQPEDFATYYCLGSYACSSADCYVFGTGTKVTVLGGGGGSGGGGSGGGGSGGGGSEVQLVESGGGLVQPGGSLRLSCAASGFSLSSYDMSWVRQAPGKGLAWIGASYASGPTYYASWAKGRFTISRDNSKNTVYLQMNSLRAEDTATYFCARGGWTGTSHSNIWGQGTLVTVSS
What is called Kd is the equilibrium constant for the complex coming apart. A low value points to higher affinity. The molecule B1 showed a Kd in the assay with CD3e of 5.2 nM.

B2: PRO2781 (28-21-D09-sc04) (antibody)
chain: B1 chain with G53A, G54S
In the assay with CD3e, B2 yielded an equilibrium dissociation constant (Kd) of 5.88 nM.

B3: PRO3477 (37-20-B03-sc09.1 human consensus LCDR2) (antibody)
chain: DIQMTQSPASLSASVGDRVTITCQASQSIGTYLAWYQQKPGKPPKLLIYAASSLQSGVPSRFSGSGSGTDFTLTISSLQPEDFATYYCQSNFYSDSTTIGPNAFGTGTKVTVLGGGGGSGGGGSGGGGSGGGGSEVQLVESGGGLVQPGGSLRLSCAASGFSFNSDYWIYWVRQAPGKGLEWIASIYGGSSGNTQYASWAQGRFTISRDNSKNTVYLQMNSLRAEDTAVYFCARGYVDYGGATDLWGQGTLVTVSS
As to B3, the binding result with PD-L1 is given as “no binding”.

B4: PRO3478 (37-20-B03-sc09.1 Y42S human consensus LCDR2) (antibody)
chain: B3 chain with Y170S
Take B4: the binding result with PD-L1 is on record as “no binding”.
